Test results published in publication PMC5902495, “Synthesis of Symmetrical Tetrameric Conjugates of the Radiolanthanide Chelator DOTPI for Application in Endoradiotherapy by Means of Click Chemistry” (Frontiers in Chemistry, 2018).

Experiments:
[1] = test system: subcutaneous LNCaP (PSMA-expressing human prostate carcinoma) xenografts; assay: Biodistribution in SCID mice bearing LNCaP xenografts; type: in vivo; conditions: compared to ^177Lu-DOTPI(DBCO-KuE)4
Method: The experiments were carried out in accordance with the German Animal Welfare Act (Tierschutzgesetz), and were previously approved by the responsible authority (Regierung von Oberbayern). The animal model, male CB-17 SCID mice bearing subcutaneous LNCaP tumor xenografts, were generated as described before (Weineisen et al., [2014]). Approximately 1–4 MBq (varying molar activities; absolute molar amounts of active compound ranging from 0.11 to 0.15 nmol) of the ^177Lu-labeled PSMA inhibitors were injected into the tail vein of the animals, which were sacrificed 1 and 24 h post injection (n = 3 per tracer per time point). Selected organs were removed, weighted and the activities contained were measured in a γ-counter.

[2] = Octanol-water distribution coefficients; type: physicochemical; conditions: n-octanol / PBS pH 7.4, ^177Lu-labeled tracer, n = 6
Method: Approximately 1 MBq of the ^177Lu-labeled tracer was added to a mixture of 0.5 mL phosphate buffered saline (PBS, pH 7.4) and 0.5 mL n-octanol in an Eppendorf tube (n = 6). After vigorous mixing of the suspension for 3 min, the vial was centrifuged at 11.500 g for 3 min for phase separation. 200 μL aliquots of each phase were withdrawn and measured in a gamma counter.

O=C(O)CC[C@H](NC(=O)N[C@@H](CCCCNC(=O)CCCCCNC(=O)CCc1cn(CCCNC(=O)CCP(=O)(O)CN2CCN(CP(=O)(O)CCC(=O)NCCCn3cc(CCC(=O)NCCCCCC(=O)NCCCC[C@H](NC(=O)N[C@@H](CCC(=O)O)C(=O)O)C(=O)O)nn3)CCN(CP(=O)(O)CCC(=O)NCCCn3cc(CCC(=O)NCCCCCC(=O)NCCCC[C@H](NC(=O)N[C@@H](CCC(=O)O)C(=O)O)C(=O)O)nn3)CCN(CP(=O)(O)CCC(=O)NCCCn3cc(CCC(=O)NCCCCCC(=O)NCCCC[C@H](NC(=O)N[C@@H](CCC(=O)O)C(=O)O)C(=O)O)nn3)CC2)nn1)C(=O)O)C(=O)O (single isomer, unassigned) [^177Lu-DOTPI(Trz-KuE)4, metal not drawn]
kidney uptake ([1]; 1 and 24 h post injection): remarkably low
tumor-to-organ ratios ([1]; after 24 h): substantially better
washout from non-target tissues [1]: much faster
logD [2]: -5 ± 0.1
